Experimental data from PMC6891578, “An extracellular domain of the EsaA membrane component of the type VIIb secretion system: expression, purification and crystallization” (Acta Crystallographica. Section F, Structural Biology …, 2019).

Molecular target: the molecule itself
Assay: SEC-MALS; Superdex 200 10/300 GL, 150 mM NaCl, 20 mM Tris–HCl pH 8.0, 3 mM DTT; 100 µl of EsaAex_2 at 4 mg/ml loaded, 0.5 ml/min

B1: EsaAex_2 (extracellular domain of EsaA, amino acids 275–689) (domain or fragment)
chain: MSQKDSVELDNYINALKQMDSQIDQQSSMQDTGKEEYKQTVKENLDKLREIIQSQESPFSKGMIEDYRKQLTESLQDELANNKDLQDALNSIKMNNAQFAENLEKQLHDDIVKEPDTDTTFIYNMSKQDFIAAGLNEGEANKYEAIVKEAKRYKNEYNLKKPLAEHINLTDYDNQVAQDTSSLINDGVKVQRTETIKSNDINQLTVATDPHFNFEGDIKINGKKYDIKDQSVQLDTSNKEYKVEVNGVAKLKKDAEKDFLKDKTMHLQLLFGQANRQDEPNDKKATSVVDVTLNHNLDGRLSKDALSQQLSALSRFDAHYKMYTDTKGREDKPFDNKRLIDMMVDQVINDMESFKDDKVAVLHQIDSMEENSDKLIDDILNNKKNTTKNKEDISKLIDQLENVKKTFAEEPQEPK
notes: EsaA, membrane component of the type VIIb secretion system, S. aureus USA300, amino acids 275–689 of the 1009-residue protein; The His tag was cleaved with TEV protease; also called purified extracellular domain; source: E. coli BL21 Star, purified (HisTrap, TEV cleavage, Ni-NTA flowthrough, SEC); not shown: His6, N-terminal, cleaved
B1 was tested, and the “stoichiometry N” value was 2.
